The values that follow come from paper doi:10.1101/2022.10.23.513379 (bioRxiv, 2022).

Test [1] has as its target T1, His-tagged wildtype SARS-CoV-2 RBD (BEI NR52309) (SARS-CoV-2, wildtype (Wuhan-Hu-1), UniProt P0DTC2). Put plainly: BLI. (Biolayer interferometry detects binding as a change in optical thickness at a sensor tip.)
In test [2] the target is T1, His-tagged wildtype SARS-CoV-2 RBD (BEI …). The experiment in a line: crystal structure.

B1: 2-7 MB (mono-specific Multabody of specificity 2-7) (complex)
VH: QITLKESGPTLVKPTQTLTLTCTFSGFSLSTSGVGVGWIRQPPGKALEWLALIYWDDDKRYSPSLKSRLTITKDTSKNQVVLTMTNMDPVDTATYYCAHHKIERIFDYWGQGTLVTVSS
VL: SALAQPASVSGSPGQSITISCTGTSSDVGAYNYVSWYQQHPGKAPKLMIYDVSKRPSGVSNRFSGSKSGNTASLTISGLQAEDEADYYCSSYTTSSTVFGGGTKLTVL
B1: the binding result in test [1] is “binds”.

B2: 2-7 IgG (antibody, V domains shown)
VH: QITLKESGPTLVKPTQTLTLTCTFSGFSLSTSGVGVGWIRQPPGKALEWLALIYWDDDKRYSPSLKSRLTITKDTSKNQVVLTMTNMDPVDTATYYCAHHKIERIFDYWGQGTLVTVSS
VL: SALAQPASVSGSPGQSITISCTGTSSDVGAYNYVSWYQQHPGKAPKLMIYDVSKRPSGVSNRFSGSKSGNTASLTISGLQAEDEADYYCSSYTTSSTVFGGGTKLTVL
As to B2, the binding result in test [1] is reported as “binds”.

B3: 80 Fab (Fab, V domains shown)
VH: QVQLVQSGAEVKKPGSSVKVSCKASGGTFNRYAFSWVRQAPGQGLEWMGGIIPIFGTANYAQKFQGRVTITADESTSTAYMELSSLRSEDTAVYYCARSTRELPEVVDWYFDLWGRGTLVTVSS
VL: not shown
Take B3: the binding result in test [2] is “binds”.

B4: 80 MB (mono-specific Multabody of specificity 80) (complex)
VH: QVQLVQSGAEVKKPGSSVKVSCKASGGTFNRYAFSWVRQAPGQGLEWMGGIIPIFGTANYAQKFQGRVTITADESTSTAYMELSSLRSEDTAVYYCARSTRELPEVVDWYFDLWGRGTLVTVSS
VL: not shown
As to B4, the binding result in test [1] is recorded as “binds”.

B5: 80 IgG (antibody, V domains shown)
VH: QVQLVQSGAEVKKPGSSVKVSCKASGGTFNRYAFSWVRQAPGQGLEWMGGIIPIFGTANYAQKFQGRVTITADESTSTAYMELSSLRSEDTAVYYCARSTRELPEVVDWYFDLWGRGTLVTVSS
VL: not shown
For the molecule B5, the binding result in test [1] was “binds”.
